US20200017552A1

Tests used:
[1] = molecular target: HA of Ft. Monmouth influenza virus (on virions) (influenza virus strain Ft. Monmouth); assay: cell-based or functional assay
[2] = molecular target: Influenza H1 hemagglutinin (HA), strain not stated for this experiment; assay: biolayer interferometry after incubation at 80 °C; HA strain not stated

mAb FI6v3 (antibody)
EC50 values for inhibition of viral replication in vitro [1]: 3.1 µg/mL
reduction of binding activity after 1 hr at 80 °C [2]: 74%
